Data from the supplement of paper PMC10126150.
± gives the standard deviation of the averaged measurements.

Each sequence was assayed on ATP (assay: switch fluorescence ratio, 500 uM ATP over buffer (Cy3 cluster intensity, sum of 5 cycles each) (fold (ratio)); higher = stronger signal-on switching upon ATP binding; sequences stand for … in TCGTCGGCAGCGTCAGATGTGTATAAGAGACAGTTTTTTTTTTTTTTTTTTTTTTTTT…TC). Conditions: aptamer strand: ATP DNA aptamer (quencher-CACCTGGGGGAGTATTGCGGAGGAAGG + anchor), 100 nM annealed; ATP concentration: 500 uM.
In short: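 Clusters with intensities outside 100-1000 RFU were excluded. The remaining Cy3-labelled switching-strand clusters on a modified Illumina MiSeq flow-cell had been annealed to 100 nM quencher-labelled ATP aptamer and imaged in selection buffer, then after 15 min with 500 uM ATP at 22 °C, for five cycles separated by NaOH stripping and re-annealing. The fluorescence ratio, averaged per switch-domain sequence, is each cluster's summed target-cycle Cy3 intensity over its summed buffer-cycle Cy3 intensity.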
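Note: ATP exposure 15 min at 22 °C before imaging.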

Sequence | switch fluorescence ratio
GCAGGTGGCG | 1.01 ± 0.044
GCAGGTTCGG | 1.01 ± 0.037
GCAGGTTGGT | 1.036 ± 0.0042
GCAGTAGTTG | 1.01 ± 0.026
GCAGTATGAG | 0.99 ± 0.021
GCAGTATTTT | 1.0075 ± 0.00081
GCAGTCTGGT | 0.98106 ± 0.00091
GCAGTCTTTG | 0.9936 ± 0.0046
GCAGTGTGCT | 0.982 ± 0.031
GCAGTTTGGA | 0.989 ± 0.015
GCAGTTTGGT | 0.9978 ± 0.0039
GCAGTTTTA | 1 ± 0.014
GCATAAAGGG | 0.989 ± 0.019
GCATAATTTT | 1.01 ± 0.028
GCATACAGGA | 1.02 ± 0.024
GCATATTAGG | 0.999 ± 0.03
GCATCCGTCG | 1.04 ± 0.031
GCATGATTTA | 1 ± 0.051
GCATGCTTAA | 0.9876 ± 0.006
GCATGGGCAG | 0.999 ± 0.023
GCATGGGTAC | 1.05 ± 0.018
GCATGGTGAC | 1.058 ± 0.0028
GCATGGTTAA | 1.019 ± 0.0023
GCATGGTTAT | 0.993 ± 0.036
GCATGTCGTT | 1.001 ± 0.0047

Sequence | switch fluorescence ratio
GCATGTTAGG | 1.01 ± 0.063
GCATTAGGGT | 1.02 ± 0.014
GCATTATCTA | 1.01 ± 0.07
GCATTATTGG | 0.998 ± 0.016
GCATTCAATG | 1.01 ± 0.024
GCATTCGATG | 0.981 ± 0.013
GCATTTAAGT | 0.993 ± 0.06
GCATTTGATG | 1.0205 ± 0.00084
GCATTTTAGG | 0.967 ± 0.045
GCATTTTATT | 0.9938 ± 0.0026
GCCAACGCTG | 1.1 ± 0.046
GCCAATGATC | 1.01 ± 0.073
GCCAGAGAGT | 1.01 ± 0.012
GCCAGCATAT | 1.153 ± 0.0062
GCCAGGATTG | 1.02 ± 0.013
GCCAGGCTGG | 1.04 ± 0.021
GCCAGGGAGG | 1.03 ± 0.026
GCCAGTCTGG | 0.987 ± 0.025
GCCAGTGTTT | 1.02 ± 0.056
GCCATAATAT | 1.01 ± 0.023
GCCATAGCTG | 1.007 ± 0.0029
GCCATATTTC | 0.998 ± 0.041
GCCATCCTGC | 1.05 ± 0.042
GCCATGGACA | 0.9847 ± 0.00086
GCCATTGTTG | 0.998 ± 0.018

Sequence | switch fluorescence ratio
GCCATTTTGA | 0.956 ± 0.037
GCCCAAGGA | 1.028 ± 0.0062
GCCCATGAGT | 1.01 ± 0.011
GCCCCCCACA | 1.1 ± 0.048
GCCCGCAGAA | 1.76 ± 0.024
GCCCGCCCGC | 1.38 ± 0.18
GCCCGCTAAT | 2.25 ± 0.052
GCCCGGGAGC | 1 ± 0.037
GCCCGGGGAC | 1.18 ± 0.12
GCCCTGGAAC | 1.01 ± 0.022
GCCCTGGTGT | 5.93 ± 0.54
GCCGAAGCTG | 1.08 ± 0.003
GCCGAGTTTC | 1.02 ± 0.014
GCCGCCTGAT | 0.986 ± 0.021
GCCGCGTGCG | 1.06 ± 0.024
GCCGCTGGGA | 1.01 ± 0.022
GCCGCTGTCG | 0.963 ± 0.045
GCCGGAAAGG | 0.9857 ± 0.0075
GCCGGAGTTA | 1.06 ± 0.017
GCCGGATTGC | 1.07 ± 0.033
GCCGGGACCG | 1.024 ± 0.01
GCCGGGACGG | 0.965 ± 0.022
GCCGGGATGC | 1.1 ± 0.11
GCCGGGGGTA | 1.04 ± 0.079
GCCGGGTCCG | 0.9938 ± 0.0011

Sequence | switch fluorescence ratio
GCCGGTCTGT | 1.01 ± 0.03
GCCGGTGGAT | 0.9793 ± 0.0084
GCCGGTGTTT | 1.02 ± 0.036
GCCGTAAGGA | 1.06 ± 0.033
GCCGTAGCTC | 1.2 ± 0.078
GCCGTAGTAA | 1.68 ± 0.011
GCCGTATGG | 0.997 ± 0.012
GCCGTCGGCA | 1 ± 0.017
GCCGTCTGCG | 0.957 ± 0.011
GCCGTGAGAG | 0.9842 ± 0.0013
GCCGTGGAGA | 1.03 ± 0.021
GCCGTTAGCG | 1.02 ± 0.049
GCCGTTGGAA | 1.01 ± 0.024
GCCGTTTTAC | 1.17 ± 0.05
GCCTAAAGTT | 0.988 ± 0.015
GCCTAGGCGG | 1.01 ± 0.062
GCCTCACCCG | 1.26 ± 0.016
GCCTCTATTT | 0.968 ± 0.019
GCCTGCGGGG | 1.04 ± 0.046
GCCTGTTGCA | 0.9709 ± 0.0037
GCCTTAATCT | 1.01 ± 0.038
GCCTTAGCTC | 1.04 ± 0.015
GCCTTCATGG | 0.98 ± 0.044
GCCTTCCCGG | 1.9 ± 0.08
GCCTTCCGTT | 1.39 ± 0.49
